The data set in a line: soluble on expression in E. coli; label from the status in PepcDB or PDB records.
Take “MSLSKSMARARNRCLPMNFRAEDLASGILRERVKVGASLADVDPMNIDKSVRFDSIGGLSHHIHALKEMVVFPLLYPEIFEKFKIQPPRGCLFYGPPGTGKTLVARALANECSQGDKKVAFFMRKGADCLSKWVGESERQLRLLFDQAYLMRPSIIFFDEIDGLAPVRSSRQDQIHSSIVSTLLALMDGLDNRGEIVVIGATNRLDSIDPALRRPGRFDREFLFNLPDQKARKHILQIHTRDWNPKLSDAFLGELAEKCVGYCGADIKALCTEAALIALRRRYPQIYASSHKLQLDVSSIVLSAQDFYHAMQNIVPASQRAVMSSGHALSPIIRPLLERSFNNILAVLQKVFPHAEISQSDKKEDIETLILEDSEDENALSIFETNCHSGSPKKQSSSAAIHKPYLHFTMSPYHQPTSYRPRLLLSGERGSGQTSHLAPALLHTLERFSVHRLDLPALYSVSAKTPEESCAQIFREARRTVPSIVYMPHIGDWWEAVSETVRATFLTLLQDIPSFSPIFLLSTSETMYSELPEEVKCIFRIQYEEVLYIQRPIEEDRRKFFQELILNQASMAPPRRKHAALCAMEVLPLALPSPPREGHHHHHH”: the “soluble on expression in E. coli” value is on record as “not soluble”.
As for “MASKYAVKLQTDFDNPKWIKRHKFMFDYLDINGNGQITLDEIVSKASDDICKNLGATPAQTQRHQDCVEAFFRGCGLEYGKETKFPEFLEGWKNLANADLAKWARNEPTLIREWGDAVFDIFDKDGSGTITLDEWKAYGRISGISPSEEDCEKTFQHCDLDNSGELDVDEMTRQHLGFWYTLDPEADGLYGNGVP”, the entry is “soluble”; as for “MKKFCLSYSSGKDCLLAMDRLVQAGNQPVALVTTLSDEINRSWFHGIPISVLEAAAEALDLPLVISHNNETNYTEKVVEALQETKKLGAETVCFGDIDIEQNGAWDRQVALSAGLEPQLPLWQENREALVKEFLAKGYTAIIKTVSKEAGIPIKFLGEPLNETFITYLKEHQLDICGENGEYHTLVIDGPLFKKRLNYYTSGIYESPYAYSLIIDA”, “not soluble”.
With “SMGAGGGGSAEQLDALVKKDKVVVFLKGTPEQPQCGFSNAVVQILRLHGVRDYAAYNVLDDPELRQGIKDYSNWPTIPQVYLNGEFVGGCDILLQMHQNGDLVEELKKLGIHSALLDE”, the “soluble on expression in E. coli” value is “soluble”.
In the case of “MGSDKIHHHHHHMMSYVRMTLYHGTDRKSAEKIMESKEILPSQGDNHWLGDGIYFYEEEFHAFKWIWYKEKNRNRLLKNFAIIKAEVICEESRIFDLTKIEHKLLFDMMYKLINTTKLRLDKLRGDMCAEGVVINYMFKNKELGYNKRFDIVRALFPIPVKKYQKIENREKNKKYKERTHRLTFMPEIQVCVKNPSVIKKLEWYDLEKTIDKFLIYTEIYKEDLGI”, the “soluble on expression in E. coli” value is “not soluble”.
Regarding “MANRTEKAAKTVKGTNPQFLVEKIIRQRIYDSMYWKEHCFALTAELVVDKGMDLRYIGGIYAGNIKPTPFLCLALKMLQIQPDKDIVLEFIQQEEFKYIRALGAMYLRLTFDSTEIYKYLEPLYNDFRKLRYMNKMGRFEAIYMDDFIDNLLREDRYCDIQLPRLQKRWALEEVDMLPSYKSLLDGDLVAMSDSDSEEEEVTKKEKPRLTSRRRSRSRDRERDVGDRREVREREKLKERRERGDDEPGPSSSGSGRRDDRDDRRRDRDRSRDRDRRDRRDDDRRDKKKESRRGGADNDEEREIAEANALRAKLGLAPLER”, the “soluble on expression in E. coli” value is “not soluble”.
The value for “MLWSGCRRFGARLGCLPGGLRVLVQTGHRSLTSCIDPSMGLNEEQKEFQKVAFDFAAREMAPNMAEWDQKELFPVDVMRKAAQLGFGGVYIQTDVGGSGLSRLDTSVIFEALATGCTSTTAYISIHNMCAWMIDSFGNEEQRHKFCPPLCTMEKFASYCLTEPGSGSDAASLLTSAKKQGDHYILNGSKAFISGAGESDIYVVMCRTGGPGPKGISCIVVEKGTPGLSFGKKEKKVGWNSQPTRAVIFEDCAVPVANRIGSEGQGFLIAVRGLNGGRINIASCSLGAAHASVILTRDHLNVRKQFGEPLASNQYLQFTLADMATRLVAARLMVRNAAVALQEERKDAVALCSMAKLFATDECFAICNQALQMHGGYGYLKDYAVQQYVRDSRVHQILEGSNEVMRILISRSLLQE” was “not soluble”.
For the sequence “MGSDKIHHHHHHMRFRERRFYMFYGKLQGENGDRFRAALQTMQELFGSVYASDNLIGLQRAGGFREDKKFVETLRRNAQTQQELSIAWRLHTLLWAAQNVMHLPGDFVECGVWKGFCFAFLTDYLDFAKSDKTLYLYDTYQGIPEAMNSEKRSNQVYEKDIAQDPNAILKVVQQRFANVPNARIVQGMVPDSFAEACPERIALLHIDMNSAASEIAALEALFDKVVPGGMIVFDDYGWTGYAAQRHAENAFMAARGHTVLEIPTGQGLVIKH”, the “soluble on expression in E. coli” value is given as “not soluble”.
As for “MIVNRNPFEQLPSLAINPEDFDVLYSAETFRTRLLDAISKATSRIYLVALYLEDDEAGREILTALYEAKQRNPGLDINICVDWHRAQRGLIGAETSEGNSALYKAFADQYQHAIPVYGIPVRGREVFGVLHLKGFVVDDTVIYSGASLNNVYLQYHGRYRFDRYHVIKHKSLADTMVNFVQNEMIAHPAVNDLADRDKPETKEIKSAIRQLRSSLAQANYQFAHEAAAEDKVKITPLVGLGKRRNLLNQQIVKLLAAAQNEIFICTPYFNFPKSIHREVKRAMKRGVKVTIVVGDKTANDFYISPEEDFKTIGGLPYLYEVNLRRFAKANEANIAARKLSVHLWKHENNSFHLKGIWVDKRYMLLTGNNLNPRAWSLDLENGLLIQDDYANLTHKFEDEVARILEHTQLICTYKQLEKVEDYPLAVQKLVRKITRLKADGVLKRILLEHHHHHH”, the entry is “soluble”; as for “MSYNFELSYVKGCDSVHVVEHKTSAVYYPRSNGAAERFVDTLKRGIAKIKGEGSVNQQILNKFLISYRNTPHSALNGATPAECHFGRKIRTTMSLLMLTDRVLKVPKLTQYQQNMKHHYDLRNGARAKNFQVNQKVYVQVHQGNKSHWKHGVIRRKFGGVLYEVQVGDRMQKSHVNQIRTRCGDYSREDIFEETIYPLFFSTPGKFTSCSDNKSRSGATGGETNLFDSSGSSVNPRLSSDSFGFVGESGGDEMSRSDDPVVTSTVPSTDLNRGSRITSELKKKESNAVRGQPRGSSSTNNNDSSAPGYASRSHPTTDPSHSVRRSSRIRRVPDRYGSSVEHPLTSTGTPRGSTSTQLGQASTRNGSRYTASGRTPSCQGNRYSSIRGEGVTARRERVRSTWR”, “not soluble”.
As for “MLEKFTVIRGKAVPLRGEDIDTDRILPARFMKVLTFEGLGQYLFYDERFDEKGNPKPHPLNDPRYRGATILLVESGFGSGSSREHAPQAIKRAGFKAIIGESFAEIFFGNATAIGLPCVSLAPEDLGVLFRSVEENPELEVEIDLVNKEVRFGDRTAPLFIREEAREALVEGLWDPIGELLEAGELLDQFDRKLPYPRRTE”, the entry is “soluble”.
Regarding “HHHHHHPEIVDTCSLASPASVCRTKHLHLRCSVDFTRRTLTGTAALTVQSQEDNLRSLVLDTKDLTIEKVVINGQEVKYALGERQSYKGSPMEISLPIALSKNQEIVIEISFETSPKSSALQWLTPEQTSGKEHPYLFSQCQAIHCRAILPCQDTPSVKLTYTAEVSVPKELVALMSAIRDGETPDPEDPSRKIYKFIQKVPIPCYLIALVVGALESRQIGPRTLVWSEKEQVEKSAYEFSETESMLKIAEDLGGPYVWGQYDLLVLPPSFPYGGMENPCLTFVTPTLLAGDKSLSNVIAHEISHSWTGNLVTNKTWDHFWLNEGHTVYLERHICGRLFGEKFRHFNALGGWGELQNSVKTFGETHPFTKLVVDLTDIDPDVAYSSVPYEKGFALLFYLEQLLGGPEIFLGFLKAYVEKFSYKSITTDDWKDFLYSYFKDKVDVLNQVDWNAWLYSPGLPPIKPNYDMTLTNACIALSQRWITAKEDDLNSFNATDLKDLSSHQLNEFLAQTLQRAPLPLGHIKRMQEVYNFNAINNSEIRFRWLRLCIQSKWEDAIPLALKMATEQGRMKFTRPLFKDLAAFDKSHDQAVRTYQEHKASMHPVTAMLVGKDLKVD”, the “soluble on expression in E. coli” value is “soluble”.
“MDAELLEIYNFLAKYPPFNELPEETLTKVTESVEISYYRQDTPIIHFGDHIQDLFVVRSGVVEVYRRKGELYNRLDEGDLFGQMGLLTNNKVRFPVKAIEDTLLYCIPVEVFQEIYDNFDSFADFVEVENSARLRQTISENKDANDLTTSKVKTLLTGDAPTINRGQTIQQAAQLMAQDNISSLLIVDPDFVLDEDDPQSPVLGIITDRDLCTRVLAEGLSPQDDVSTVMTTEVISLDHNAYIYEAMLTMLRYNVHHLPVVKNQLPIGIIETTDIVRYESQNSLLLVSSIFQQQSIEDLATVAEEVKSSFVRLVNEDANSHMVGSAMSVIGRSFKQRLLELAEEELGAPPIPYCFLALGSMGRDEQLLVTDQDNAIILDESYQEEKHGKYFEDLAKFVSDGLDACGYKYCTGDIMATNPMWRMTRSEWEECFADWIDDPNPKALLNASIFFDLDGVYGRLKWAEQLTSFIVRRARKNNRFLACLARNALNRTPPLGFFKDFVMEKDGQHKNSINLKRRGTAPLVDLIRVHALAVGSRAQNSFERLDDIIDAGILPKGRAQDLKDALEFISMVRIRHQATDVELGIEPDNNIEPENLSDFERRNLKDAFQILSNGQNFLKFRYQANKSFK”: the “soluble on expression in E. coli” value was “not soluble”.
As for “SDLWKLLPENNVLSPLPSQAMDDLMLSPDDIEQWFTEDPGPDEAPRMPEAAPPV”, the entry is “soluble”.
Turning to “MTRFLEKRHKKKKATNKERILSYKPIHAIEQENSFRSSRCSNQTVEVSAVEDSRSALVGFFESNEPSESVTLKGKRERQVRFADKTNTVGLLKESLEEKLLASKTLISQLKEENCRLKERLNEVKDQLELKEKIALVQQENNDLEAEVLEWKAKFYESESEKERILASRSRPKDGYEIVQESLAQQPGTTSFYDYKFRQLVHKLTRMNAIHSKHNDKEYHKCDIVNESKDRSITFELFIDEEQEEIEYVPVQLNGVSQKLPSYLQDNISFDVQNAPIFFTKIMHSLFSK”, the “soluble on expression in E. coli” value is on record as “soluble”.
As for “GPGSMLRGCAAACGQCRESASAVYGQALWLLLRPWTRSPSLPSSTHARLGLRRALGTVTSSLSSSSSCATVHHPTRWVSRKSIEEQLPSNIKVDPNASATAGRENEGLGRDAFSSGINGIYGNRAESAMRGMLGPQGQADARESRAVPILGRASVQGTKYTLDRSTVFEHWRFHCSEPVGWHLSKLGSTTCKMVNDVNEAVESLQLQIIKGCNVFEIDGAASEVHQSIARGIYEALQAFELDRSGFVMVARCGLIKQPRFQDEITRVEASNTAAVRNRIIPIFERYKASSLPSTSLKSGFRISELDDSQLARLNLRRVDRTTAAGLSPDWLDAFFTNVAYNTRLECIDVLLLEGMHTLFDGRPDEHVDDDILQLFVYLERQVKQGVLQYYGVCSPHLAPPVPRNYPEMPPDALVPDKYRTPPKEPATINLYRLMALAERAGGADHHFRFVQYPFNLTQHQAISSPLPYDANHTLATLCKALGLTALGYSPLEAPNLMQLPERYHNFPMEADLKALRMNFFTVCERSVLKEMEIKDTIDKGPDTLPPLEHLFVASVYLAAQRQFTNLFFFTDWANYYMTPRFRRAMTRFKEASSADLKEWAKQYEQLISDLLRMRQRMFQHKHGKQAGLVNMAIDYVSPTLARCPMLNQKAINFATYGCNVLLCGFHVSRYFHEATELNPAKDGNLPIPEEELLALCSAETVSYANVSPPHPYMLEPLMGEGKISKQPSKGAAYLVRIDPQNPKFPDIPEELQTGDSDGEAPVSADGATAALHKDEAPEKAVKE”, the “soluble on expression in E. coli” value is given as “not soluble”.
For the sequence “MSLATYETFAAVYDAVMDDTLYAKWTDFSLRHFPKGKKKLLELACGTGIQSVRFAQAGYAVTGLDLSGDMLKLAKKRATSAHQSIQFIEGNMLDLSNVGKYDLITCYSDSICYMQDEVEVGDVFIEVYKALEENGVFIFDVHSTYQTDKVFPGYSYHENADDFAMVWDTYEDDAPHSIVHELTFFVQEEDGRFTRHDEVHEERTYDILTYDILLEQAGFKDVKVYADFEDKKPTATSARWFFVAHKEGHHHHHH”, the “soluble on expression in E. coli” value is recorded as “soluble”.

Source of the values: the DeepSol protein solubility set.
